The target in test [1] is T1, extracellular domain of human Cripto-1, soluble form, with N-terminal His-tag (human, limits assumed).
T1 construct: Prepared in soluble form by the method of Alam et al., Int J Mol Sci 2018; also called purified human Cripto-1; CR-1
T1 chain: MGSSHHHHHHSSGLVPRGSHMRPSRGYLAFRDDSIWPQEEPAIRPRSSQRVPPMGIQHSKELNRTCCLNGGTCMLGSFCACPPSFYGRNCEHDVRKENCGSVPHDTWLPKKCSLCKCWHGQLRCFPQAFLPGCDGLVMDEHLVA
The test can be described thus: screening of a phage-displayed human antibody library. The protocol:
The extracellular domain of human Cripto-1 contains the amino acid sequence represented by SEQ ID NO: 11, and has a His-tag sequence having the amino acid sequence represented by SEQ ID NO: 12 at its N-terminus. The extracellular domain of human Cripto-1 was prepared in its soluble form in accordance with the method disclosed in Alam. et. al., Int J Mol Sci. 2018, 26; 19 (11). The antibody library used as a screening target is described in Sakai, K. et al., Biochemistry 46 (1): 253-62, and the subclass of the antibody is IgG.

Test [2] has as its target T2, human Cripto-1 in human cancer tissue (tissue array BCN801) (human, UniProt P13385 31-150, GPI-anchor (thought to be bound to the cell membrane surface by GPI-anchors)).
T2 construct: whole, on cells; Endogenous protein detected by immunostaining of pancreas, thyroid, prostate, stomach, cervical, colorectal and breast cancer tissue; also called CR-1
T2 sequence (looked up): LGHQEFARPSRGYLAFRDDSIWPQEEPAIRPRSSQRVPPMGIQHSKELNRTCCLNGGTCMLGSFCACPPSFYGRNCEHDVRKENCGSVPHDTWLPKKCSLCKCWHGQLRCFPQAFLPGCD
Description: immunostaining of a human cancer tissue array, ALEXA568-labeled anti-human IgG secondary antibody. The method, then:
Immunostaining was performed on a human cancer tissue array (BCN801, US Biomax Inc.). The #35 clone was used as a primary antibody. ALEXA568-labeled anti-human IgG goat antibody (Invitrogen) was used as a secondary antibody to detect human Cripto-1 in each cancer tissue (pancreas cancer tissue, thyroid gland cancer tissue, prostate cancer tissue, stomach cancer tissue, cervical cancer tissue, colorectal cancer tissue, and breast cancer tissue). These cancer tissues contained cancer stem cells as well as cancer cells, and Cripto-1 was thought to be bound to the surface of the cell membrane of the cancer stem cells by GPI-anchors. In a negative control experiment, the signal background was confirmed by using only the secondary antibody. FIGS. 3 to 5 show the results.

B1: #35 clone antibody (human-derived anti-human Cripto-1 monoclonal antibody) (antibody, V domains shown)
VH: QVQLQQSGPGLVKPSQTLSLTCAISGNSVSSNSAAWNWIRRSPSRGLEWLGRTYYRSKWYNDYAVSVKSRITIKPDTSKNQFSLQLNSVTPEDTAMYYCARGFCSGGRCYSFDYWGPGTLVTVSS
VL: QSVLTQPASVSGSPGQSITISCTGTDSDVGAYGSASWYRHSPGKAPQLIIYDVTNRPSGVSNRFYGSKSGNTASLTISGLQAEDEADYYCQAWDSGIHVVFGGGTQLTVLG
notes: The library subclass is IgG; also called Clone #35
In the case of B1, the binding result in test [1] and in test [2] was “binds” in each case.
